Results on 32 sequences are retold here after the supplement of paper PMC10724198.

The test system of data set [1] is Saccharomyces cerevisiae. The data set can be described thus: protein stability index of tFT-peptide fusion in wild type (PSI (0-1 scale)); higher = more stable (slower turnover). Conditions: genetic background: wild type. Here is the method: (§1)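 MPS profiling in S. cerevisiae of two library types built from selected 12-aa C-degron peptides (IN1, IN2, LN1, LN3, VN2, R1-R5, W1-W3, Atg1 and Rpa12 C-termini): saturation mutagenesis libraries and C-terminal +1 capping libraries (13 aa). Each peptide is fused to the C-terminus of a sfGFP-mCherry timer, after a GGGS linker. Cells are FACS-sorted into 8 mCherry/sfGFP bins and sequenced. PSI runs from 0 (unstable) to 1 (stable), measured once in wild type and in the das1Δ or doa10Δ background.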

The test system of data set [2] is Saccharomyces cerevisiae. Briefly: protein stability index of tFT-peptide fusion in deletion strain of DAS1 (PSI (0-1 scale)); higher = more stable (slower turnover). Here is the method:
as §1

Data set [3] concerns Saccharomyces cerevisiae. The data set can be described thus: protein stability index of tFT-peptide fusion (C-terminal peptide) (PSI (0-1 scale)); higher = more stable (slower turnover). The following applies: temperature: 30 C. The procedure:
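MPS profiling in S. cerevisiae of the yeast C-terminome library: the last 12 aa of each annotated ORF are fused to the C-terminus of a sfGFP-mCherry timer, after a GGGS linker. Cells are FACS-sorted into 8 mCherry/sfGFP bins and deep-sequenced. PSI runs from 0 (unstable) to 1 (stable); wild type and das1Δ backgrounds, two technical replicates each.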

Setting [4] is: genetic background: das1 deletion.

± gives the standard deviation of the averaged measurements.
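For protein stability index of tFT-peptide fusion in deletion strain of DAS1 in this document: PSI is a weighted mean of each variant's read distribution over the sorted stability bins, computed only for variants having over 10 reads in total.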
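For protein stability index of tFT-peptide fusion in wild type in this document: PSI derived as read-weighted mean over the 8 sorting bins, only variants exceeding 10 total reads kept, mCherry placed adjacent to the peptide and sfGFP distal.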

Consider ADKRNHLIKLLN, for which the protein stability index was 0.129 in data set [1] and 0.587 in data set [2].

Turning to AKILRQKMNHQN, the protein stability index was found to be 0.185 in data set [1] and 0.688 in data set [2].

With ANWRVGLWRGAS, the protein stability index in data set [1] worked out at 0.498; in data set [2] it was 0.685.

Consider ARDRVGLWRGAS, for which the protein stability index in data set [1] stood at 0.575; in data set [2], 0.716.

ARKRVGLWRGAS: the protein stability index in data set [1] worked out at 0.517; in data set [2], 0.691.

As for ARMRVGLWRGAS, the protein stability index in data set [1] worked out at 0.645; in data set [2] it was 0.702.

Consider ARSRVGLWRGAS, for which the results for the protein stability index in data set [1] and in data set [2] were 0.591 and 0.698, respectively.

Regarding VKNSPRLLLFFI [YOL160W C-terminal 12 aa], the protein stability index was found to be 0.673 ± 0.041 in data set [3] (setting [4]) and 0.53 ± 0.011 in data set [3] (genetic background: wild type).

Consider “VKSNPQPAYTFQ [YFR012W-A C-terminal 12 aa]”, for which the results for the protein stability index in data set [3] (setting [4]) and in data set [3] (genetic background: wild type) were 0.679 ± 0.02 and 0.6969 ± 2.8e-05, respectively.

For VLDDAEETKESH [ATP14 C-terminal 12 aa], the protein stability index was 0.689 ± 0.024 in data set [3] (setting [4]) and 0.67 ± 0.023 in data set [3] (genetic background: wild type).

In the case of VLERVSRGAGSH [COF1 C-terminal 12 aa], the protein stability index in data set [3] (setting [4]) was found to be 0.7039 ± 0.0025; in data set [3] (genetic background: wild type) it was 0.688 ± 0.036.

For the sequence VLLTAYKKLLTK [KEG1 C-terminal 12 aa], the protein stability index in data set [3] (setting [4]) was 0.685 ± 0.021; in data set [3] (genetic background: wild type), 0.62079 ± 0.00024.

For the sequence VLMKQLDEIIRK [BUD14 C-terminal 12 aa], the protein stability index worked out at 0.6982 ± 0.0046 in data set [3] (setting [4]) and 0.704 ± 0.058 in data set [3] (genetic background: wild type).

For VLPTWADKVINE [SPE4 C-terminal 12 aa], the protein stability index in data set [3] (setting [4]) was found to be 0.69 ± 0.0095; in data set [3] (genetic background: wild type) it was 0.677 ± 0.012.

As for VMDDIISELTNE [KRE28 C-terminal 12 aa], the protein stability index in data set [3] (setting [4]) amounted to 0.713 ± 0.019; in data set [3] (genetic background: wild type), 0.687 ± 0.046.

Turning to VNQKQPPPQSYV [YEL067C C-terminal 12 aa], the values for the protein stability index in data set [3] (setting [4]) and in data set [3] (genetic background: wild type) were 0.7165 ± 0.00072 and 0.7048 ± 0.00045, respectively.

In the case of VPLESTKRQPLH [YBR053C C-terminal 12 aa], the protein stability index stood at 0.719 ± 0.0097 in data set [3] (setting [4]) and 0.704 ± 0.026 in data set [3] (genetic background: wild type).

On to VPPRSASASSQR [SPC97 C-terminal 12 aa], for which the results for the protein stability index in data set [3] (setting [4]) and in data set [3] (genetic background: wild type) were 0.689 ± 0.018 and 0.684 ± 0.015, respectively.

VPQEDDRLHKLK [AIM3 C-terminal 12 aa]: the results for the protein stability index in data set [3] (setting [4]) and in data set [3] (genetic background: wild type) were 0.701 ± 0.016 and 0.765 ± 0.039, respectively.

As to VQLIDGPEEMHR [SHO1 C-terminal 12 aa], the results for the protein stability index in data set [3] (setting [4]) and in data set [3] (genetic background: wild type) were 0.726 ± 0.009 and 0.663 ± 0.008, respectively.

For VQWSRPRRGDVL [LAM6 C-terminal 12 aa], the protein stability index is 0.7079 ± 0.0014 in data set [3] (setting [4]) and 0.703 ± 0.051 in data set [3] (genetic background: wild type).

Consider VRGRKSRNTSRV [REP2 C-terminal 12 aa], for which the protein stability index was 0.711 ± 0.013 in data set [3] (setting [4]) and 0.755 ± 0.035 in data set [3] (genetic background: wild type).

As for VSDAMFDQGDVF [GDH1 C-terminal 12 aa], the protein stability index in data set [3] (setting [4]) amounted to 0.72756 ± 0.0006; in data set [3] (genetic background: wild type), 0.707 ± 0.012.

In the case of VSKLNGFSFTDI [ASE1 C-terminal 12 aa], the values for the protein stability index in data set [3] (setting [4]) and in data set [3] (genetic background: wild type) were 0.669 ± 0.0088 and 0.674 ± 0.016, respectively.

As to “VSYFSIFSLFFF [YKL096C-B C-terminal 12 aa]”, the protein stability index in data set [3] (setting [4]) is 0.667 ± 0.047; in data set [3] (genetic background: wild type), 0.603 ± 0.016.

Consider VVDLIMEYLQDT [YDL057W C-terminal 12 aa], for which the protein stability index in data set [3] (setting [4]) is 0.699 ± 0.013; in data set [3] (genetic background: wild type), 0.741 ± 0.078.

Consider VVFLSVLKRNDL [YOL099C C-terminal 12 aa], for which the protein stability index worked out at 0.685 ± 0.031 in data set [3] (setting [4]) and 0.772 ± 0.11 in data set [3] (genetic background: wild type).

Take VVPVLMGNMKVA [YEL073C C-terminal 12 aa]: the protein stability index in data set [3] (setting [4]) turned out to be 0.69 ± 0.01; in data set [3] (genetic background: wild type) it was 0.634 ± 0.053.

With VWTLELSVIGVQ [WHI2 C-terminal 12 aa], the protein stability index came to 0.542 ± 0.011 in data set [3] (setting [4]) and 0.572 ± 0.011 in data set [3] (genetic background: wild type).

On to WAINESEGYGFR [HUL4 C-terminal 12 aa], for which the protein stability index was 0.727 ± 0.016 in data set [3] (setting [4]) and 0.708 ± 0.051 in data set [3] (genetic background: wild type).

Take WAREQQKRQLSL [KAP95 C-terminal 12 aa]: the protein stability index in data set [3] (setting [4]) was 0.725 ± 0.0096; in data set [3] (genetic background: wild type), 0.729 ± 0.019.

In the case of WKEVLKFPKSFN [HXT15 C-terminal 12 aa], the protein stability index was 0.724 ± 0.0077 in data set [3] (setting [4]) and 0.714 ± 0.031 in data set [3] (genetic background: wild type).
